In patent US20070184522A1, “Cell death modulation via antagonists of Fasl and Fas activation” (University of Pittsburgh of the Commonwealth System of …, priority 2004, published 2007):

Tests used:
[1] = biological target: T1, Fas-Fc / Fas ligand binding (Mus musculus, UniProt P25446); assay: Competition ELISA: coated Fas ligand, Fas-Fc added with increasing amounts of polypeptide; conditions: Fas ligand 1 μg/ml coated, Fas-Fc 1 μg/ml
T1 construct: purchased R&D
T1 sequence (P25446 22-169 limits assumed): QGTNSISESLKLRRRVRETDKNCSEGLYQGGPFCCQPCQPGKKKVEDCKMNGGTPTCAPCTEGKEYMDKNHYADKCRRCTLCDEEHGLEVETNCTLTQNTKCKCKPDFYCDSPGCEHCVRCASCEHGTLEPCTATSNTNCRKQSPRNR
Protocol: This antibody also recognizes Fas-Fc which is also tagged at the C-terminus by His. In FIG. 2b, a fixed amount of purified recombinant Fas-ligand was added to Fas-Fc in the absence or presence of increasing amounts of AlphaMet as indicated. Samples were subjected to pull down using proteinA agarose followed by Western blot using a polyclonal rabbit anti-FasL antibody. […] Fas ligand (1 μg/ml) was coated in the wells of a microtiter plate (triplicate wells) then 1 μg/ml of Fas-Fc was added in the absence or presence of an increasing amount of the indicated polypeptide. A 13 mer YLGA polypeptide derived from FasL also was synthesized and used. The control peptide was a scrambled 13 mer. Anti human IgM-HRP conjugates were used to detect the bound Fas-Fc. […] One-way ANOVA was carried out for determination of statistical significance. […] Cells (3×10^5) were plated in 24-well plates having Poly-L-Lysine pre-treated cover glass. 2 μg/ml of Fas ligand was added and the cells were incubated for 30 min on ice. Cells were then washed by PBS twice, and were subjected to immunostaining using anti-Fas ligand antibody and fluorescent microscopy. In Frame A, Fas ligand was not added, in B, only Fas ligand was added, in C-F, Fas ligand was added with different polypeptides as follows: AlphaMet, 12 mer YLGA, control peptide, and YLGA mutated AlphaMet, respectively.
(§1) ELISA. Synthesized polypeptides (Genemed Synthesis, Inc. South San Francisco, Calif.) were dissolved in water and diluted in the coating buffer (0.05M of Sodium Carbonate, 0.02% of Sodium Azide, pH 9.6) to a final concentration of 1 ug/ml. One hundred microliter aliquots were added to coat each well of a 96-well microtitre plate. The coated plates were then washed with PBS-Tween (0.5%) three times. The plates were blotted and dried by tapping upside down on tissue paper. They were blocked using 200 μl of 1% of BSA in PBS solution followed by a 2 hour incubation. Plates were washed another three times, Fas-Fc was added, and the plates were incubated for another 2 hours. The plates were washed three times and anti-human IgM Fc HRP conjugates were included at a final concentration of 1:20,000, and incubated for 1 hour. Plates were washed three times again and ready-to-use TMD was added and incubated for 30 minutes. The color reaction was stopped by 2M of Sulfuric Acid. Plates were applied to color read at a wave length of 450 nm.

[2] = biological target: T2, Fas-Fc (Mus musculus, UniProt P25446); assay: ELISA of Fas-Fc binding to coated synthetic polypeptides; conditions: peptides coated at 1 μg/ml, increasing Fas-Fc, OD 450 nm
T2 construct: purchased R&D
T2 sequence (P25446 22-169 limits assumed): T1 sequence (P25446 22-169 limits assumed)
Source text: The Met alpha but not beta chain binds to Fas (FIG. 1a). Various regions of the mouse Met cDNA corresponding to the alpha chain or the extra-cellular portion of the Met beta chain were cloned into expression vectors (pCRT7 TOPO/AlphaMet or pCRT7 TOPO/beta chain) and subjected to in vitro transcription/translation by a rabbit reticolucyte lysate translation system. Empty vector was included in each experiment as a control. The expressed proteins were labeled with ^35S-Methionine. Pull down assays were performed using Fas-Fc, a chimeric molecule which lacks the interacellular cytoplasmic domain and protein-A agarose as described in Wang et al., 2002. FIG. 1b is a schematic presentation of the Met alpha chain and its mutant version used to map the region interacting with Fas. The C-terminus of each construct contains a hexa-Histidine tag for ease of detection. Start cordon ATG was added to the N-terminally truncated constructs. The YLGA (SEQ ID NO:1) motif mutation was prepared by PCR, in which YLGA (SEQ ID NO:1) was replaced by DHER (SEQ ID NO:24). […] In vitro translated ^35S-methionine labeled truncated/mutated AlphaMet proteins were pulled down with 2 μg of Fas-Fc or the same amount of IgG. Lane 1: 10% of AlphaMet input; Lane 2: AlphaMet with IgG control; Lanes 3 to 8: pull down of various truncated AlphaMet proteins; N-terminal 1-106 residues; C-terminal truncated, residues 1-210; alpha chain, residues 1-306; alpha chain with transmembrane domain, 1-338; N-terminally truncated alpha chain, residues 100-306; and N-terminally truncated with addition of the transmembrane domain 100-338, respectively. FIG. 1d depicts the amino acid sequence alignment of alpha chain with FasL, determined using the CLUSTALW, SIM+LALNVIEW, and ALIGN at ExPASy Proteomic Tools (available on the internet at us.expresly.org/tools). The numbers indicate the amino acid residues of the indicated protein. […] Recombinant His-tagged AlphaMet or its mutant version were expressed in E. coli, purified with chromatography, and subjected to Fas-Fc (lanes labeled Fas) or control IgG pull down experiments, and detected by Western blot using anti-His antibody that recognizes C-terminal His. This antibody also recognizes the Fas-Fc which is also tagged at the C-terminus by His. […] Purified recombinant AlphaMet protein (approximately 10 μg) was mixed with Hepa 1-6 cells or Jurkat cell lysates and subjected to immunoprecicitation using anti-Fas antibody or control IgG followed by Western blot using anti His-tag antibody as a probe. […] Peptides (1 μg/ml) were coated into the 96-well microtiter plates in triplicate and after blocking with 1% BSA, increasing amounts of Fas-Fc were added as indicated. The control peptide was a scrambled 13 mer. After washing the wells, anti-human […]-HRP conjugates (1:20,000) were added to detect the bound Fas-Fc using TMD dye and the OD value was determined at a wavelength of 450 nm. One-way ANOVA was carried out for determination of statistical significance.
as §1, with “Plates were applied to color read at a wave length of 450 nm.” left out

[3] = biological target: CFP-tagged and YFP-tagged Fas expressed in Hepa 1-6 cells; assay: cell-based or functional assay
[4] = biological target: T3, Fas-Fc (extracellular part of Fas) (Mus musculus, UniProt P25446); assay: Fas-Fc pull down assay with protein-A agarose; assay type: binding; conditions: in vitro translated 35S-labeled proteins, autoradiography
T3 construct: purchased R&D
T3 sequence (P25446 22-169 limits assumed): T1 sequence (P25446 22-169 limits assumed)
Source text: The Met alpha but not beta chain binds to Fas (FIG. 1a). Various regions of the mouse Met cDNA corresponding to the alpha chain or the extra-cellular portion of the Met beta chain were cloned into expression vectors (pCRT7 TOPO/AlphaMet or pCRT7 TOPO/beta chain) and subjected to in vitro transcription/translation by a rabbit reticolucyte lysate translation system. Empty vector was included in each experiment as a control. The expressed proteins were labeled with ^35S-Methionine. Pull down assays were performed using Fas-Fc, a chimeric molecule which lacks the interacellular cytoplasmic domain and protein-A agarose as described in Wang et al., 2002. FIG. 1b is a schematic presentation of the Met alpha chain and its mutant version used to map the region interacting with Fas. The C-terminus of each construct contains a hexa-Histidine tag for ease of detection. Start cordon ATG was added to the N-terminally truncated constructs. The YLGA (SEQ ID NO:1) motif mutation was prepared by PCR, in which YLGA (SEQ ID NO:1) was replaced by DHER (SEQ ID NO:24). […] In vitro translated ^35S-methionine labeled truncated/mutated AlphaMet proteins were pulled down with 2 μg of Fas-Fc or the same amount of IgG. Lane 1: 10% of AlphaMet input; Lane 2: AlphaMet with IgG control; Lanes 3 to 8: pull down of various truncated AlphaMet proteins; N-terminal 1-106 residues; C-terminal truncated, residues 1-210; alpha chain, residues 1-306; alpha chain with transmembrane domain, 1-338; N-terminally truncated alpha chain, residues 100-306; and N-terminally truncated with addition of the transmembrane domain 100-338, respectively. FIG. 1d depicts the amino acid sequence alignment of alpha chain with FasL, determined using the CLUSTALW, SIM+LALNVIEW, and ALIGN at ExPASy Proteomic Tools (available on the internet at us.expresly.org/tools). The numbers indicate the amino acid residues of the indicated protein. […] Recombinant His-tagged AlphaMet or its mutant version were expressed in E. coli, purified with chromatography, and subjected to Fas-Fc (lanes labeled Fas) or control IgG pull down experiments, and detected by Western blot using anti-His antibody that recognizes C-terminal His. This antibody also recognizes the Fas-Fc which is also tagged at the C-terminus by His. […] Purified recombinant AlphaMet protein (approximately 10 μg) was mixed with Hepa 1-6 cells or Jurkat cell lysates and subjected to immunoprecicitation using anti-Fas antibody or control IgG followed by Western blot using anti His-tag antibody as a probe. […] After washing the wells, anti-human […]-HRP conjugates (1:20,000) were added to detect the bound Fas-Fc using TMD dye and the OD value was determined at a wavelength of 450 nm. […]

Molecule: TGHIYLGAVNRIY [13-mer derived from PlexinA4]
- inhibition of FasL binding to Fas-Fc (ELISA) [1]: significantly inhibited FasL binding
- Fas binding by ELISA [2]: strong Fas-binding activity

Molecule: FLGAV
- inhibition of FasL binding to Fas-Fc (ELISA) [1]: inhibiting FasL binding to Fas
- Fas binding by ELISA [2]: very active in binding to Fas

Molecule: HHIFLGATNYIY
- inhibition of FasL binding to Fas-Fc (ELISA) [1]: significantly inhibited FasL binding
- Fas binding by ELISA [2]: strong Fas-binding activity

Molecule: FTAETPIQNVVLHGHHIYLGATNYIYVLNDKDLQKV [36 mer]
- inhibition of FasL binding to Fas-Fc (ELISA) [1]: significantly inhibited FasL binding
- Fas binding by ELISA [2]: bound Fas strongly

Molecule: RLGA
- Fas binding by ELISA [2]: completely lost their Fas binding capacity

Molecule: FLGA [FLGA tetramer]
- Fas binding by ELISA [2]: identical binding activity to that of the YLGA tetramer

Molecule: Jo2, monoclonal anti-Fas antibody
- percent of fluorescent cells showing Fas capping [3]: 30%

Molecule: AHSSYLGAVFNLT [YLGA-13 mer]
- inhibition of FasL binding to Fas-Fc (ELISA) [1]: significantly inhibited FasL binding
- Fas binding by ELISA [2]: bound Fas strongly

Molecule: YRGA
- Fas binding by ELISA [2]: completely lost their Fas binding capacity

Molecule: YLRA
- Fas binding by ELISA [2]: completely lost their Fas binding capacity

B1: Met beta chain: extracellular region of Met beta chain (amino acids 308 to 968, with transmembrane portion) (protein)
chain: TREEVFNILQAAYVSKPGANLAKQIGASPSDDILFGVFAQSKPDSAEPVNRSAVCAFPIKYVNDFFNKIVNKNNVRCLQHFYGPNHEHCFNRTLLRNSSGCEARSDEYRTEFTTALQRVDLFMGRLNQVLLTSISTFIKGDLTIANLGTSEGRFMQVVLSRTAHLTPHVNFLLDSHPVSPEVIVEHPSNQNGYTLVVTGKKITKIPLNGLGCGHFQSCSQCLSAPYFIQCGWCHNQCVRFDECPSGTWTQEICLPAVYKVFPTSAPLEGGTVLTICGWDFGFRKNNKFDLRKTKVLLGNESCTLTLSESTTNTLKCTVGPAMSEHFNVSVIISNSRETTQYSAFSYVDPVITSISPRYGPQAGGTLLTLTGKYLNSGNSRHISIGGKTCTLKSVSDSILECYTPAQTTSDEFPVKLKIDLANRETSSFSYREDPVVYEIHPTKSFISGGSTITGIGKTLNSVSLPKLVIDVHEVGVNYTVACQHRSNSEIICCTTPSLKQLGLQLPLKTKAFFLLDGILSKHFDLTYVHNPVFEPFEKPVMISMGNENVVEIKGNNIDPEAVKGEVLKVGNQSCESLHWHSGAVLCTVPSDLLKLNSELNIEWKQAVSSTVLGKVIVQPDQNFAGLIIGAVSISVVVLLLSGLFLWMRKRKHKDLGSELVR
- Fas binding in Fas-Fc pull down [4]: not the Met beta chain region bound specifically
